Test results reported in patent publication EP2974737A1.
Positions count from the first letter of the chain named.

B1: SEQ ID NO: 49 (VHH)
VHH: EVQLLESGGGLVQPGGSLRLSCAASGLPFSTKSMGWFRQAPGKGREFVSRISPGGTSRYYGDFVKGRFTISRDNSKNTLYLQMNSLRAEDTAVYYCASGERSTYIGSNYYRTNEYDYWGQGTLVTVSS
B2: SEQ ID NO: 48 (VHH)
VHH: EVQLVESGGGLVQPGGSLRLSCIASGLPFSTKSMGWFRQAPGKEREFVARISPGGTSRYYGDFVKGRFAISRDNAKNTTWLQMNSLKAEDTAVYYCASGERSTYIGSNYYRTNEYDYWGTGTQVTVSS
B3: SEQ ID NO: 45 (VHH)
VHH: EVQLVESGGGLVQAGGSLRLSCAASRSIGRLDRMGWYRHRTGEPRELVATITGGSSINYGDFVKGRFTISIDNAKNTVYLQMNNLKPEDTAVYYCNFNKYVTSRDTWGQGTQVTVSS
B4: SEQ ID NO: 87 (VHH)
VHH: B3 VHH with L11S, A14P, T41P, F62S, A74S, N84S, K86R, Q112L, S116G, S117G
B5: SEQ ID NO: 71 (VHH)
VHH: B3 VHH with A14P, T41P, F62S, A74S, N84S, K86R, Q112L, S117G
B6: SEQ ID NO: 84 (VHH)
VHH: B3 VHH with A14P, T41P, F62S, A74S, N84S, K86R, Q112L, S116G
B7: SEQ ID NO: 70 (VHH)
VHH: B3 VHH with A14P, T41P, F62S, A74S, N84S, K86R, Q112L, T114Q
B8: SEQ ID NO: 67 (VHH)
VHH: B3 VHH with A14P, T41P, F62S, A74S, N84S, Q112L
B9: SEQ ID NO: 80 (VHH)
VHH: B3 VHH with A14P, T41P, F62S, A74S, N84S, K86R, Q112L, T114Q, S116G, S117G
B10: SEQ ID NO: 89 (VHH)
VHH: B3 VHH with L11S, T41P, F62S, A74S, N84S, K86R, Q112L, T114Q, S116G, S117G
B11: SEQ ID NO: 69 (VHH)
VHH: B3 VHH with A14P, T41P, F62S, A74S, N84S, K86R
B12: SEQ ID NO: 65 (VHH)
VHH: B3 VHH with T41P, F62S, A74S, N84S, K86R, Q112L
B13: SEQ ID NO: 82 (VHH)
VHH: B3 VHH with A14P, T41P, F62S, A74S, N84S, K86R, P87A, Q112L
B14: SEQ ID NO: 68 (VHH)
VHH: B3 VHH with T41P, F62S, A74S, N84S, K86R
B15: SEQ ID NO: 66 (VHH)
VHH: B3 VHH with L11S, A14P, T41P, F62S, A74S, N84S, K86R, Q112L
B16: SEQ ID NO: 78 (VHH)
VHH: B3 VHH with Q13R, A14P, T41P, F62S, A74S, N84S, K86R, Q112L
B17: SEQ ID NO: 83 (VHH)
VHH: B3 VHH with A14P, T41P, F62S, A74S, N84S, K86R, T90A, Q112L
B18: SEQ ID NO: 81 (VHH)
VHH: B3 VHH with L11V, A14P, T41P, F62S, A74S, N84S, K86R, Q112L
B19: SEQ ID NO: 85 (VHH)
VHH: EVQLVESGGGSVQPGGSLRLSCAASRSIGRLDRMGWYRHRPGEPRELVATITGGSSINYGDSVKGRFTISIDNSKNTVYLQMNSLRPEDTAVYYCNFNKYVTSRDTWGQGTLVQVGG
B20: SEQ ID NO: 43 (VHH)
chain: DVQLVESGGGLVQPGGSLRLSCAASGFILDYYAIGWFRQAPGKEREGVLCIDASDDITYYADSVKGRFTISRDNSKNTVYLQMNSLRPEDTAVYYCATPIGLSSSCLLEYDYDYWGQGTLVTVSSGGGGSGGGSEVQLLESGGGLVQPGGSLRLSCAASGFTFRSFGMSWVRQAPGKGPEWVSSISGSGSDTLYADSVKGRFTISRDNSKNTLYLQMNSLRPEDTAVYYCTIGGSLSRSSQGTLVTVSSA
B21: SEQ ID NO: 47 (VHH)
VHH: EVQLVESGGGLVQPGGSLRLSCAASGSVFKINVMAWYRQAPGKGRELVAGIISGGSTSYADSVKGRFTISRDNAKNTLYLQMNSLRPEDTAVYYCAFITTESDYDLGRRYWGQGTLVTVSS

Target: monoclonal antibody 21-4-3
Assay: SPR, captured 21-4-3, 500 nM; % of Fig. 9 reference

Sequence of monoclonal antibody 21-4-3 (VH, as listed by the source, form in doubt, chain 1 of 2): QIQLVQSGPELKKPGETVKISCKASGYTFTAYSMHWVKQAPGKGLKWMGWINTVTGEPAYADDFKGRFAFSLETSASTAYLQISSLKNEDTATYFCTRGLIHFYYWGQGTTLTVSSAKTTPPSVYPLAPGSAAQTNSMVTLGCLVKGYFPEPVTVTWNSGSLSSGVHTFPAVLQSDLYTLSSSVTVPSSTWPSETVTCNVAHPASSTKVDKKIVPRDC
Sequence of monoclonal antibody 21-4-3 (VL, as listed by the source, form in doubt, chain 2 of 2): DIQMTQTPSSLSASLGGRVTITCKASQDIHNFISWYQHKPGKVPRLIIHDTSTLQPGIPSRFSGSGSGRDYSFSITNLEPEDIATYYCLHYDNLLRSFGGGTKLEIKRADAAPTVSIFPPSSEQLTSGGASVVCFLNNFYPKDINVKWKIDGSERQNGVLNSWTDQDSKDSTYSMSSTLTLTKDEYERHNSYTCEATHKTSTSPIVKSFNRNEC

binding of 21-4-3, % of Reference Sequence | Binder
4% | B1
3% | B2
22% | B3
41% | B4
44% | B5
91% | B6
106% | B7
101% | B8
51% | B9
2% | B10
106% | B11
23% | B12
56% | B13
26% | B14
48% | B15
1% | B16
79% | B17
75% | B18
32% | B19
3% | B20
4% | B21
